Measurements taken from patent US20190262327A1, “COMBINATION OF A BACE INHIBITOR AND AN ANTIBODY OR ANTIGEN-BINDING FRAGMENT FOR THE TREATMENT OF A DISORDER ASSOCIATED WITH THE ACCUMULATION OF AMYLOID BETA” (ASTRAZENECA AB, priority 2016, published 2019).

Tests used:
[1] = tested on: human Abeta peptides (Abeta 1-42, Abeta 1-43, Abeta 1-16, Abeta 12-28, Abeta 17-42, Abeta pyro-3-42, Abeta pyro-11-42); assay: HTRF competition binding experiments with panel of Abeta peptides; details: competitor 10 uM down to 0.17 nM; antibody 0.5 nM
Method: The specificity of Abet0380-GL IgG1-TM was examined in competition binding experiments. In brief Abet0380-GL IgG1-TM (0.5 nM) was incubated (1 hr at room temperature) with a range of different concentrations (10 uM down to 0.17 nM) of a panel of full length, truncate and pyro human Abeta peptides (Abeta 1-42, Abeta 1-43, Abeta 1-16, Abeta 12-28, Abeta 17-42, Abeta pyro-3-42, or Abeta pyro-11-42).
Following the incubation between Abet0380-GL IgG1-TM and the Abeta peptides N-terminal biotin Abeta 1-42 (1.5 nM) was added followed by a europium cryptate labelled anti-human Fc antibody (0.8 nM) (CisBio Cat. No. 61HFCKLB) and streptavidin-XL^entl (5 nM) (CisBio Cat. No. 611SAXLB). The assay was then incubated for a further 2 hrs at room temperature before reading on an Envision plate reader (PerkinElmer) using a standard homogeneous time resolved fluorescence (HTRF) read protocol. In the absence of competition, the interaction of N-terminal biotin Abeta 1-42 with Abet0380-GL IgG1-TM (in complex with streptavidin-XL^entl and europium cryptate labelled anti-human Fc antibody, respectively) could then be measured via time resolved fluorescence resonance energy transfer (TR-FRET) due to the proximity of the europium cryptate donor and XL^665 acceptor fluorophores. […]

[2] = tested on: Amyloid beta 1-40 peptide; assay: Total Amyloid beta 1-40 peptide in rat brain homogenates (ELISA); format: in vivo; details: Sprague-Dawley rats, 0.25-10 mg/kg weekly over 14 days
Method: […] Dosing solutions were made just before dosing. Animals were anaesthetized at the time indicated and cerebrospinal fluid (CSF) was aspirated from the cistema magna. CSF samples were centrifuged for 10 minutes at approximately 3000× g at 4° C. within 20 minutes of sampling to remove cells or debris. Samples were then frozen on dry ice and stored at −70° C. for subsequent analysis.
Animals were sacrificed by decapitation, brain tissue was dissected and Amyloid beta peptides were extracted from brain tissue in diethylamine (DEA; Fluka. Sigma. UK; cat: 31729). Briefly, frozen brain tissue was homogenized in 0.2% DEA and 50 mM NaCl (Merck, USA: cat: 1.06404.1000). Brain homogenates were ultracentrifuged at 133,000×g, for 1 hour. Recovered supernatants were neutralized to pH 8.0 with 2 M Tris-HCl (TRIZMA®-hydrochloride; Sigma, UK; cat: 93363) and stored at −70° C. until analysis. Animal experimentations were performed in accordance with relevant guidelines and regulations provided by the Swedish Board of Agriculture. […]
Measurement of total Amyloid beta 1-40 peptide in rat brain homogenates was performed using the mouse Amyloid beta (1-40) colorimetric ELISA kit (Invitrogen, UK; cat: KMB3481). […] To stop the reaction, 100 μl of Stop Solution was added to each well and the plate was read within 2 hours at an absorbance of 450 nm. […]

Amyloid plaques = assay: In vitro immunohistochemistry on Tg2576 mouse brain sections
Excerpt: Briefly, the lead antibodies were screened on human Alzheimer's Disease brain sections and Tg2576 mouse brain sections to identify anti-Amyloid beta 1-42 antibodies that bound to Amyloid plaques in vitro.
In these experiments, human brain tissue was isolated from the frontal cortex of two individuals with severe Alzheimer's Disease (ApoE genotype 3/3, Braak stage 6 and ApoE genotype 4/3, Braak stage 5). As a control, equivalent tissue was isolated from one non-dementia individual (ApoE genotype 3/3, Braak stage 1). Mouse brain tissue was isolated from Tg2576 mice at an age of 15 months (2 mice) and 22 months (2 mice). Antibodies were tested at concentrations of 2, 5, 10 and 20 ug ml^−1.

B1: Abet0380-GL IgG1-TM: germlined Abet0380; VH SEQ ID NO: 524, VL SEQ ID NO: 533; human IgG1 triple mutant format (antibody, listed as Homo sapiens, V domains shown)
VH: EVQLLESGGGLVQPGGSLRLSCAASMGNFNYQTMWWVRQAPGKGLEWVSVIGKTNENIAYADSVKGRFTISRDNSKNTLYLQMNSLRAEDTAVYYCAREWMDHSRPYYYYGMDVWGQGTLVTVSS
VL: SYELTQPPSVSVSPGQTASITCSGHNLEDKFASWYQQKPGQSPVLVIYRDDKRPSGIPERFSASNSGHTATLTISGTQAMDEADYYCSSQDTVTRVFGGGTKLTVL
modifications: human IgG1 triple mutant constant region; /note=“Abet0380-GL”
notes: germlined Abet0380; human IgG1 triple mutant format
B1 was tested, and the “inhibition of antibody : N-terminal Biotin Abeta 1-42 binding by Abeta 1-16 or Abeta 12-28” value [1] was “No inhibition”, the “effect on total Amyloid beta 1-40 peptide in brain tissue” value [2] was “unaffected” and the “core plaques (CP) staining score” value (Amyloid plaques; Tg2576 brain sections) was 4. For the same molecule, the plaque recognition score (Amyloid plaques; Tg2576 mouse brain sections, 22 month old mice, 20 μg/ml) was 4.
